Experiment [1] addresses activated albumin 21 (human serum albumin whose Cys34 free thiol is substituted by a disulfanyl group with aldrithiol) (human) (UniProt P02768). The experiment can be described thus: albumin binding test: 50 µl of 1 mM Compound 15 with 40 µl of 1 mM activated albumin, HPLC of supernatant (unbound peptide).
Experiment [2] shares this target. The experiment can be described thus: albumin binding test: 40 µl of 1 mM Compound 15 with 50 µl of 1 mM activated albumin, HPLC of supernatant (unbound peptide).
Experiment [3] has the same target. The experiment can be described thus: albumin binding test: 20 µl of 1 mM Compound 15 with 50 µl of 1 mM activated albumin, HPLC of supernatant (unbound peptide).
Experiment [4] shares this target. Briefly: albumin binding test: 20 µl of 1 mM Compound 15 with 50 µl of 1 mM activated albumin in 100 µl PBS, 37 C 30 min, methanol precipitation, HPLC of supernatant (unbound peptide).
Experiment [5] has the same target. Briefly: albumin binding test: 50 µl of 1 mM Compound 15 with 40 µl of 1 mM activated albumin in 100 µl PBS, 37 C 30 min, methanol precipitation, HPLC of supernatant (unbound peptide).
Experiment [6] shares this target. Briefly: albumin binding test: 50 µl of 1 mM Compound 15 with 50 µl of 1 mM activated albumin, HPLC of supernatant (unbound peptide).
For experiment [7] the target is unchanged. The experiment can be described thus: albumin binding test: 50 µl of 1 mM Compound 15 with 50 µl of 1 mM activated albumin in 100 µl, 37 C 30 min, methanol precipitation, HPLC of supernatant (unbound peptide).
Experiment [8] shares this target. The experiment can be described thus: albumin binding test: 40 µl of 1 mM Compound 15 with 50 µl of 1 mM activated albumin in 100 µl PBS, 37 C 30 min, methanol precipitation, HPLC of supernatant (unbound peptide).

Sequence of activated albumin 21 (human serum albumin whose Cys34 free thiol is substituted by a disulfanyl group with aldrithiol) (human) (P02768 25-609 limits assumed): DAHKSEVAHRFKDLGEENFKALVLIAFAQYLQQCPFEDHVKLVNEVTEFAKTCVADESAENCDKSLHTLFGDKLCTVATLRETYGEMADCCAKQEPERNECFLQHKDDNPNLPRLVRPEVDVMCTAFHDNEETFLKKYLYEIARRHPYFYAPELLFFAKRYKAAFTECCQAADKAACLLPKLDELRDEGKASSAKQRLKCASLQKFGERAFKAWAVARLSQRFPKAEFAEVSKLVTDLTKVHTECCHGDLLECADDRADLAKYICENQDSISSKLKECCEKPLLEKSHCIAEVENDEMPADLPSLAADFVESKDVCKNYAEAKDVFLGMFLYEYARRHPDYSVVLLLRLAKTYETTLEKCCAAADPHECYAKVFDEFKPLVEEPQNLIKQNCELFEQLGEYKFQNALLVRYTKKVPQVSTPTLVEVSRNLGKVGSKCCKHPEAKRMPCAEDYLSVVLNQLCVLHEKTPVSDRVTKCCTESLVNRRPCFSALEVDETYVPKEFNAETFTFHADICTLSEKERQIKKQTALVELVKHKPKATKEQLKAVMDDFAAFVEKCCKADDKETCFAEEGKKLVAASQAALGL

For “Compound 15: Leuprolide-GSG-Lys-[ε-AEEA-CO-(CH2)2-SH]-NH2.2TFA (peptide)”, the PA 20.6 min/4.4M (peak area against that of 10 µl Compound 15 alone) was determined as 4 in experiment [1], 2.2 in experiment [2], 0.3 in experiment [3] and 3.3 in experiment [6]. Also, the PA 20.6 min (HPLC peak area of Compound 15 left in the supernatant) in experiment [4] worked out at 1.3e+06 peak area; in experiment [5] it was 1.79e+07 peak area; in experiment [7], 1.47e+07 peak area; in experiment [8] it was 9.8e+06 peak area.

The values above are taken from US20100021480A1, “BIOACTIVE SUBSTANCE-BLOOD PROTEIN CONJUGATE AND STABILIZATION OF A BIOACTIVE SUBSTANCE USING THE SAME” (priority 2005, published 2010).
